Numbering of substitutions follows the chain as printed. Values joined by “and” are separate entries in the source; they are usually repeats but may differ in a detail not shown here. Equal entries are not always repeated. Where two headings read alike, the source gives them in different places. Where no end group is shown, it is not given here.
How the values were obtained:
[1] = molecular target: T1, human EGFL7 (EGFL7-CB-His) (human, UniProt Q9UHF1 23-273, limits assumed); experiment: cell-based or functional assay
T1 sequence: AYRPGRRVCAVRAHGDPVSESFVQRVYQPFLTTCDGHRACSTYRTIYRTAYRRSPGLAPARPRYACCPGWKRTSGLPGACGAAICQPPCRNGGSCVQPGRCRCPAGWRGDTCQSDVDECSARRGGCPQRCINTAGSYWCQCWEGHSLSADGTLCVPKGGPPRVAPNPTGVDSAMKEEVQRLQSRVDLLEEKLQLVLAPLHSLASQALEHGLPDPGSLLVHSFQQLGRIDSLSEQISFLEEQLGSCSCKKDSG

[2] = molecular target: T2, mouse EGFL7 (mEGFL7-CB-His) (mouse, UniProt Q9QXT5 22-275); experiment: SPR (Biacore), IgG over immobilized mEGFL7-CB at 37 C;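 also: IgG injected as twofold series from 0.5 to 1000 nM, 3 min association and 3.5 min dissociation, reference flow cell subtracted, kinetics fitted to 1:1 Langmuir model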
T2 sequence: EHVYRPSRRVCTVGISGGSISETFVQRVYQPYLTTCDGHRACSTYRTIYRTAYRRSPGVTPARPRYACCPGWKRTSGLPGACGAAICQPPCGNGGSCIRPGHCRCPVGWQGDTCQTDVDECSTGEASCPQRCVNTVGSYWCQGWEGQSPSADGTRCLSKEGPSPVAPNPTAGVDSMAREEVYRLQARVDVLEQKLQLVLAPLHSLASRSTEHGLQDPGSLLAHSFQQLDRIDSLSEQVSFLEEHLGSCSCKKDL

p5 peptide of EGFL7 [3] = molecular target: T3, p5 peptide of EGFL7 (human); experiment: SPR (Biacore), IgG over immobilized P5 peptide at 37 C, n = 3
T3 construct: also called Peptide P5
T3 peptide: RACSTYRTIYRTA

[4] = molecular target: T4, truncated human EGFL7 (residues 1-182) (human, UniProt Q9UHF1 24-182); experiment: phage ELISA on truncated huEGFL7 immobilized on a microtiter plate
T4 construct: Expressed in CHO cells; The range as printed starts at Met 1; also called truncated EGFL7; truncated huEGFL7
T4 chain: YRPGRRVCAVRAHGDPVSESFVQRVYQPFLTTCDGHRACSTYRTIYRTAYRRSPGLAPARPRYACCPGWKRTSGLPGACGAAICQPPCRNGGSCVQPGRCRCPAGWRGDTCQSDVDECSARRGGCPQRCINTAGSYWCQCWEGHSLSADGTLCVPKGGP

[5] = molecular target: T2, mouse EGFL7 (mEGFL7-CB-His); experiment: SPR (Biacore), IgG over immobilized mEGFL7-CB at 37 C, n = 2
p5 peptide of EGFL7 [6] = molecular target: T3, p5 peptide of EGFL7; experiment: SPR (Biacore), IgG over immobilized P5 peptide at 37 C, n = 2
[7] = molecular target: T2, mouse EGFL7 (mEGFL7-CB-His); experiment: cell-based or functional assay
p5 peptide of EGFL7 [8] = molecular target: T3, p5 peptide of EGFL7; experiment: SPR (Biacore), IgG over immobilized P5 peptide at 37 C;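 also: IgG variants injected at 0.5–1000 nM (2-fold series), 3 min association and 3.5 min dissociation, reference flow cell subtracted, kinetics fitted with a 1:1 Langmuir model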
[9] = molecular target: T5, p2S (p2 peptide biotinylated through its free cysteine) (human, also: biotinylated (maleimide PEO2-biotin) on one of the two Cys, which one not given here); experiment: SPR (BIAcore-2000), IgG injected over immobilized p2S peptide
T5 construct: The peptide has two cysteines; also called b-p2S
T5 peptide: RPRYACCPGWKRT

[10] = molecular target: EGFL7 coated on plates in the cell adhesion assay (human or mouse, not told apart at this place); experiment: cell-based or functional assay
[11] = molecular target: T5, p2S (p2 peptide biotinylated through …); experiment: SPR (BIAcore-2000), IgG injected over immobilized p2S peptide
[12] = molecular target: T1, human EGFL7 (EGFL7-CB-His); experiment: cell-based or functional assay; remark: listed apart in the source
[13] = molecular target: T2, mouse EGFL7 (mEGFL7-CB-His); experiment: cell-based or functional assay; remark: listed apart in the source
[14] = molecular target: T5, p2S (p2 peptide biotinylated through …); experiment: SPR (Biacore), binding to p2S, KD relative to ch4F11
[15] = molecular target: T4, truncated human EGFL7 (residues 1-182); experiment: phage ELISA on truncated huEGFL7 immobilized on a microtiter plate

B1: 18F7.v6 IgG (antibody, V domains shown)
VH: EVQLVESGGGLVQPGGSLRLSCAASGYTFIDYYMNWVRQAPGKGLEWVGDINLDNGGTHYNQKFKGRFTISRDKSKNTAYLQMNSLRAEDTAVYYCAREGVYHDYDDYAMDYWGQGTLVTVSS
VL: DIQMTQSPSSLSASVGDRVTITCRTSQSLVHINGITYLHWYQQKPGKAPKLLIYRVSNRFSGVPSRFSGSGSGTDFTLTISSLQPEDFATYYCGQSTHVPLTFGQGTKVEIKR
notes: IgG; also called hu18F7.v6
[1]
  IC50, HUVEC adhesion [left panel]: 5.62 nM
[2]
  Kd: 0.408 nM
  koff: 2.04e-05 s⁻¹
  kon: 50000 M⁻¹ s⁻¹
p5 peptide of EGFL7 [3]
  Kd: 3.21 nM
  koff: 0.000389 s⁻¹
  kon: 121000 M⁻¹ s⁻¹

B2: phage displaying 18F7-graft Fab (Fab, V domains shown)
VH: B1 VH with K74N, A79L
VL: B1 VL with G94S
notes: Monovalent Fab-g3 display on M13 phage; heavy chain VH-CH1 fused to P3; also called 18F7-graft phage
[4]
  binding result: binds

B3: 18F7.v6C IgG (antibody, V domains shown)
VH: B1 VH with G56S
VL: DIQMTQSPSSLSASVGDRVTITCRTSQSLVHINGITYLHWYQQKPGKAPKLLIYRVSNRFSGVPSRFSGSGSGTDFTLTISSLQPEDFATYYCGQSTHVPLTFGQGTKVEIK
notes: IgG; Variant of 18F7.v6
[5]
  Kd: 2.4 nM
  koff: 8.1e-05 s⁻¹
  kon: 36000 M⁻¹ s⁻¹
p5 peptide of EGFL7 [6]
  Kd: 4.13 nM
  koff: 0.000502 s⁻¹
  kon: 124000 M⁻¹ s⁻¹

B4: 18F7.v6A IgG (antibody, V domains shown)
VH: B1 VH
VL: B3 VL with N33S
notes: IgG; Variant of 18F7.v6
[5]
  Kd: 7.29 nM
  koff: 0.000404 s⁻¹
  kon: 55000 M⁻¹ s⁻¹
p5 peptide of EGFL7 [6]
  Kd: 3.74 nM
  koff: 0.00137 s⁻¹
  kon: 373000 M⁻¹ s⁻¹

B5: 18F7.v6K IgG (antibody, V domains shown)
VH: B1 VH with G56S
VL: B1 VL with G34A
notes: IgG; also called hu18F7.v6k; h18F7.v6k
[7]
  IC50, HUVEC adhesion [right panel]: 6.37 µg/ml and 42 nM
[2]
  Kd: 1.6 nM
  koff: 4.54e-05 s⁻¹
  kon: 28000 M⁻¹ s⁻¹
p5 peptide of EGFL7 [8]
  Kd: 5.2 nM
  koff: 0.000662 s⁻¹
  kon: 127000 M⁻¹ s⁻¹

B6: 18F7.v6B IgG (antibody, V domains shown)
VH: B1 VH with N55S
VL: B3 VL
notes: IgG; Variant of 18F7.v6
[5]
  Kd: 2.68 nM
  koff: 0.000174 s⁻¹
  kon: 79000 M⁻¹ s⁻¹
p5 peptide of EGFL7 [6]
  Kd: 3.22 nM
  koff: 0.000638 s⁻¹
  kon: 196000 M⁻¹ s⁻¹

B7: 4F11.v16 IgG (antibody, name in Kabat numbering, V domains shown)
VH: EIQLVESGGGLVQPGGSLRLSCAASGHTFTTYGMSWVRQAPGKGLEWMGWINTHSGVPTYADDFKGRFTFSLDTSASTAYLQMNSLRAEDTAVYFCARLGSSAVDYWGQGTLVTVSS
VL: DIQMTQSPSSLSASVGDRVTITCKASQSVDYDGDSYMSWYQQKPGKAPKLLIYGASNLESGVPSRFSGSGSGTDFTLTISSLQPEDFATYYCQQNNEDPYTFGQGTKVEIKR
notes: IgG; Kabat numbering
[9]
  Kd: 16.8 nM
  koff: 0.00165 s⁻¹
  kon: 98100 M⁻¹ s⁻¹

B8: 4F11.v6 IgG (antibody, V domains shown)
VH: B7 VH with I2V, M48V, F70I, L72R, T74N, A76K, S77N, A79V, F95Y
VL: DIQMTQSPSSLSASVGDRVTITCKASQSVDYDGDSYMSWYQQKPGKAPKLLIYGASYLESGVPSRFSGSGSGTDFTLTISSLQPEDFATYYCQQNNEDPYTFGQGTKVEIK
notes: IgG; Kabat numbering
[10]
  Cell Adhesion Assay Variant/ch4F11 (fold): 4.01 fold
[11]
  Kd: 19.5 nM
  koff: 0.0024 s⁻¹
  kon: 123000 M⁻¹ s⁻¹

B9: 4F11.v17 IgG (antibody, V domains shown)
VH: B7 VH with I2V, M48V, F70I, T74N, A76K, S77N, F95Y, S102Y
VL: B7 VL with D32S, N57Y, L58R, D98E
notes: IgG; Library 1 framework; also called hu4F11.v17
[12]
  Cell Adhesion Assay (human EGFL7) Variant/ch4F11 (fold): 0.86 fold
[13]
  IC50 (read off the curve), HUVEC adhesion: ~10 µg/mL
[14]
  Fold change in KD variant/(chimera): 0.93 fold

B10: phage displaying 4F11.v1 Fab (Fab, V domains shown)
VH: B7 VH with I2V, M48V, F70I, L72R, T74N, A76K, S77N, A79L, F95Y
VL: B7 VL
notes: Monovalent Fab-g3 display on M13 phage; heavy chain VH-CH1 fused to minor coat protein P3; also called 4F11.v1 phage; 4F11-graft Fab on phage
[15]
  binding result: binds

B11: 4F11.v10 IgG (antibody, V domains shown)
VH: B7 VH with I2V, M48V, F70I, L72R, T74N, A76K, S77N, A79V, F95Y, S102Y
VL: B8 VL
notes: IgG; Kabat numbering
[10]
  Cell Adhesion Assay Variant/ch4F11 (fold): 4.38 fold
[11]
  Kd: 27.4 nM
  koff: 0.00197 s⁻¹
  kon: 72000 M⁻¹ s⁻¹

B12: 4F11.v22 IgG (antibody, V domains shown)
VH: B7 VH with F70I, T74N, A76K, S102Y
VL: B7 VL with D32S, N57Y, L58R, D98E
notes: IgG; Library 2 framework
[12]
  Cell Adhesion Assay (human EGFL7) Variant/ch4F11 (fold): 0.81 fold
[14]
  Fold change in KD variant/(chimera): 1 fold

Source: US20140051120A1 (Genentech, published 2014)
